Experimental data published in patent US20230272055A1 (Incyte, published 2023).
Changes are numbered by the printed parent chain.

T1: human Type 1 mutCALR on Ba/F3 cells expressing MPL and Type 1 mutCALR (human)
T1 chain: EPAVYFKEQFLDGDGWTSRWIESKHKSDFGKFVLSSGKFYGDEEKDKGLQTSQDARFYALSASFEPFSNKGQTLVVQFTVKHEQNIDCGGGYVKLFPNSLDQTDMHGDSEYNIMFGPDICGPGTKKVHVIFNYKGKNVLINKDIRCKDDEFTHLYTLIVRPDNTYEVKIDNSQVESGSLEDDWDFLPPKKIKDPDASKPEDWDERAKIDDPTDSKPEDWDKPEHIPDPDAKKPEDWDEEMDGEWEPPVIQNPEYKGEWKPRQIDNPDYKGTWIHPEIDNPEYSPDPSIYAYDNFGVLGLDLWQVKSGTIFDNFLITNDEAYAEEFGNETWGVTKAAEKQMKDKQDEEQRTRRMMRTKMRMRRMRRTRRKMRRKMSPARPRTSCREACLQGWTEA

T2: human mutCALR on BaF3 cells stably expressing human MPL and human mutCALR (MPL-mutCALR cells) (human)
T2 construct: also called mutant calreticulin
T2 chain: T1 chain

B1: anti-mutCALR antibody clone 7 (antibody, human IgG1, lambda, V domains shown)
VH: EVQLVQSGAEVKKPGASVKVSCKVSGYTLTELSMQWVRQAPGKGLEWMGGFDPDDGETMYAEKFQGRLTVTEDTSTDTVYMELRSLTSEDTALYFCATSPGYDFFDYWGQGTLVTVSS
VL: SYVLTQPPSVSVAPGQTASITCVGTNFGSKNVHWYQQRPGQAPVLVVYDDSDRPSGIPERFSGSNSGNTATLTINRVEAGDEADYYCQVWDSSNDLLIFGGGTKLTVLG
notes: human IgG1
B2: anti-mutCALR antibody clone 26 (antibody, human IgG1, lambda, V domains shown)
VH: B1 VH
VL: B1 VL with S19R, V23G, T25N, F27I, N31S, R38K, N75S, N94I, L96H, L105V
notes: human IgG1
B3: anti-mutCALR antibody clone 24 (antibody, human IgG1, lambda, V domains shown)
VH: B1 VH with F64L
VL: B1 VL with Q16K, S19R, V23G, T25N, F27I, N31S, R38K
notes: human IgG1
B4: anti-mutCALR antibody clone 15 (antibody, human IgG1, lambda)
heavy: not shown
light: SYELTQPPSVSVAPGKTARITCGGDNIGSKSVHWYQQKPGQAPVLVVYDDSDRPSGIPERFSGSNSGNTATLTINRVEAGDEADYYCQVWDSSNDLLIFGGGTKLTVLGQPKAAPSVTLFPPSSEELQANKATLVCLISDFYPGAVTVAWKADSSPVKAGVETTTPSKQSNNKYAASSYLSLTPEQWKSHRSYSCQVTHEGSTVEKTVAPTECS
notes: human IgG1
B5: anti-mutCALR antibody clone 25 (antibody, human IgG1, lambda, V domains shown)
VH: B1 VH
VL: B1 VL with V3E, S11A, S19R, V23G, T25N, F27I, S29R, N31A, R38K
notes: human IgG1
B6: anti-mutCALR antibody clone 29 (antibody, human IgG1, lambda, V domains shown)
VH: B1 VH
VL: B1 VL with Q16K, S19R, V23G, T25N, F27I, N31S, R38K, N75S, N94S, T103A
notes: human IgG1
B7: anti-mutCALR antibody clone 8 (antibody, human IgG1, lambda, V domains shown)
VH: B1 VH with E1Q, A16S
VL: SYELTQPPSVSVAPGQTARITCGGNNIGSKSVHWYQQKPGQAPVLVVYDDSDRPSGIPERFSGSNSGRTATLTISRVEAGDEADYHCQVWDSSSDHLVFGGGTKLTVLG
notes: human IgG1
B8: anti-mutCALR antibody clone 13 (antibody, human IgG1, lambda, V domains shown)
VH: B1 VH with E1Q
VL: not shown
notes: human IgG1
B9: anti-mutCALR antibody clone 21 (antibody, human IgG1, lambda, V domains shown)
VH: B1 VH with K23E
VL: SYVLTQPPSVSVAPGQTARVSCGGNNIGSKSVNWYRQKPGQAPVLVIYDDSDRPSGIPERFSGSNSGNTATLTISRVEAGDEADYYCQVWDSSNDLLIFGGGTKLTVLG
notes: human IgG1
B10: anti-mutCALR antibody clone 30 (antibody, human IgG1, lambda, V domains shown)
VH: B1 VH
VL: B1 VL with Q16K, S19T, V23G, T25N, F27I, S29T, N31S, R38K
notes: human IgG1
B11: anti-mutCALR antibody clone 16 (antibody, human IgG1, lambda, V domains shown)
VH: B1 VH
VL: B1 VL with Q16K, S19R, V23G, T25N, F27T, N31S, R38K
notes: human IgG1
B12: anti-mutCALR antibody clone 28 (antibody, human IgG1, lambda, V domains shown)
VH: B1 VH
VL: B7 VL with R68N, H86Y, S92A, S93D, H96Q, V98I
notes: human IgG1
B13: anti-mutCALR antibody clone 27 (antibody, human IgG1, lambda, V domains shown)
VH: B1 VH
VL: B9 VL with V20I, S21T, S29I, N33H, R36Q, I47V, S51R, S75N
notes: human IgG1
B14: anti-mutCALR antibody clone 20 (antibody, human IgG1, lambda, V domains shown)
VH: B1 VH
VL: B1 VL with Q16K, S19R, V23G, T25N, F27I, N31G, R38K
notes: human IgG1
B15: anti-mutCALR antibody clone 9 (antibody, human IgG1, lambda, V domains shown)
VH: B1 VH
VL: B9 VL with V20I, S21P, N33H, R36Q, I47V, S51R, S75N
notes: human IgG1
B16: anti-mutCALR antibody clone 12 (antibody, human IgG1, lambda, V domains shown)
VH: B1 VH with D55G
VL: B9 VL with S75N
notes: human IgG1
B17: anti-mutCALR antibody clone 22 (antibody, human IgG1, lambda, V domains shown)
VH: B1 VH
VL: B1 VL with Q16K, S19R, V23G, T25N, F27I, R38K
notes: human IgG1
B18: anti-mutCALR antibody clone 23 (antibody, human IgG1, lambda, V domains shown)
VH: B1 VH
VL: B9 VL with V20I, S21T, S29I, N33H, R36Q, I47V, S75N
notes: human IgG1
B19: anti-mutCALR antibody clone 18 (antibody, human IgG1, lambda, V domains shown)
VH: B1 VH
VL: B9 VL with Q16K, V20I, S21T, N33H, R36Q, I47V, S55L, S75N
notes: human IgG1
B20: anti-mutCALR antibody clone 17 (antibody, human IgG1, lambda)
heavy: not shown
light: SYVLTQPPSVSVAPGQTARITCGGSDIGDEIVHWYQQKPGQAPVLVVYDDSDRPSGIPERFSGSNSGNTATLTISRAQAGDEADYYCQVWDSSSDHLIFGGGTKLTVLGQPKAAPSVTLFPPSSEELQANKATLVCLISDFYPGAVTVAWKADSSPVKAGVETTTPSKQSNNKYAASSYLSLTPEQWKSHRSYSCQVTHEGSTVEKTVAPTECS
notes: human IgG1
B21: anti-mutCALR antibody clone 19 (antibody, human IgG1, lambda, V domains shown)
VH: B1 VH with S75P
VL: B1 VL with P8L, P14L, S19R, V23G, T25S, F27I, S29D, K30I, N31R, R38K
B22: anti-mutCALR antibody clone 10 (antibody, human IgG1, lambda, V domains shown)
VH: B1 VH
VL: B7 VL with T21P, K30E, S31G, R68N, H86Y, S94N, H96L, V98I
notes: human IgG1
B23: anti-mutCALR antibody clone 37 (antibody, human IgG1, lambda, V domains shown)
VH: QVQLVQSGAEVKKPGATVKISCKVSGYSFTDYFIHWVQQAPGKGLAWVGLVDPEDGETIYAEKFQGRVTITADTSTDTAYMELSSLRSEDTAVYYCATPGGILTDPDAFDIWGQGTMVTVSS
VL: QSALTQPASVSGSPGQSITISCTGTSSDVGGYNYVSWYQQHPGKAPKLMIYDVSNRPSGVSNRFSGSKSGNTASLTISGLQAEDEADYYCSSYTSSSTFYVFGTGTKVTVLG
notes: human IgG1
B24: anti-mutCALR antibody clone 32 (antibody, human IgG1, lambda, V domains shown)
VH: B23 VH
VL: B23 VL with D52E, F99P
notes: human IgG1
B25: anti-mutCALR antibody clone 31 (antibody, human IgG1, lambda, V domains shown)
VH: B23 VH
VL: QSALTQPASVSGSPGQSVTISCTGTSSDVGGYNYVSWYQHHPGKAPKLMIYDVNKRPSGVPDRFSGSKSGNTASLTISGLQAEDEADYYCSSYIPSSTRWVFGGGTKLTVLG
notes: human IgG1
B26: anti-mutCALR antibody clone 35 (antibody, human IgG1, lambda, V domains shown)
VH: B23 VH with K63R
VL: B23 VL with D52E, F99P
notes: human IgG1
B27: anti-mutCALR antibody clone 36 (antibody, human IgG1, lambda, V domains shown)
VH: B23 VH
VL: B23 VL with A8R, I18V, T23A, S26G, Q40H, S54N, N55K, S61P, N62D
notes: human IgG1

Biological target: T1, human Type 1 mutCALR on Ba/F3 cells …
Test: cell-based or functional assay

Point of comparison: B1, “IC50, inhibition of pSTAT5” value 0.049 µg/mL. Against it:
- B2 — higher, 0.125 µg/mL
- B3 — lower, 0.031 µg/mL
- B4 — lower, 0.041 µg/mL
- B5 — lower, 0.024 µg/mL
- B6 — lower, 0.037 µg/mL
- B7 — lower, 0.043 µg/mL
- B8 — higher, 0.091 µg/mL
- B9 — lower, 0.032 µg/mL
- B10 — higher, 0.054 µg/mL
- B11 — lower, 0.028 µg/mL
- B12 — higher, 0.193 µg/mL
- B13 — lower, 0.037 µg/mL
- B14 — lower, 0.018 µg/mL
- B15 — higher, 0.056 µg/mL
- B16 — higher, 0.061 µg/mL
- B17 — lower, 0.035 µg/mL
- B18 — lower, 0.03 µg/mL
- B19 — lower, 0.036 µg/mL
- B20 — lower, 0.031 µg/mL
- B21 — higher, 0.062 µg/mL
- B22 — higher, 0.055 µg/mL
- B23 — lower, 0.039 µg/mL
- B24 — higher, 0.47 µg/mL
- B25 — higher, 26.8 µg/mL
- B26 — higher, 0.444 µg/mL
- B27 — higher, 0.092 µg/mL

Biological target: T2, human mutCALR on BaF3 cells stably …
Test: flow cytometry, BaF3 MPL-mutCALR cells
Protocol: On the day of the assay, cells were washed and resuspended in assay buffer. Approximately 200,000 cells/well were added to 96-well plates and stained with the indicated concentration of antibodies for 30 minutes on ice. Cells were then washed and stained with goat anti-human secondary conjugated to R-phycoerythrin (R-PE) (Jackson Immuno Research Laboratories) for 30 minutes on ice. The cells were then washed and analyzed by flow cytometry.

Point of comparison: B1, EC50 0.19 µg/mL. Against it:
- B2 — 2.2-fold higher, 0.42 µg/mL
- B3 — 150-fold higher, 29.3 µg/mL
- B5 — 410-fold higher, 77.3 µg/mL
- B6 — 17-fold higher, 3.19 µg/mL
- B7 — 22-fold higher, 4.12 µg/mL
- B8 — 4.8-fold lower, 0.04 µg/mL
- B9 — 3.7-fold higher, 0.7 µg/mL
- B11 — 4.8-fold lower, 0.04 µg/mL
- B12 — 22-fold higher, 4.15 µg/mL
- B16 — 9.5-fold lower, 0.02 µg/mL
- B23 — 51-fold higher, 9.64 µg/mL
- B24 — 19-fold lower, 0.01 µg/mL
- B25 — 19-fold lower, 0.01 µg/mL
- B26 — 9.5-fold lower, 0.02 µg/mL
- B27 — 19-fold lower, 0.01 µg/mL

Point of comparison: B6, “MPL-mutCALR AUC” value 77900. Against it:
- B1 — lower, 66800
- B2 — lower, 41500
- B3 — lower, 67800
- B4 — higher, 87600
- B5 — lower, 65200
- B7 — lower, 67400
- B8 — lower, 57700
- B9 — lower, 70100
- B10 — lower, 63800
- B11 — lower, 63200
- B12 — lower, 60400
- B13 — lower, 55200
- B14 — higher, 92700
- B15 — lower, 75300
- B16 — lower, 61000
- B17 — higher, 124000
- B18 — lower, 65900
- B19 — higher, 91900
- B20 — lower, 72700
- B21 — higher, 91600
- B22 — lower, 72100
- B23 — higher, 80900
- B24 — lower, 52500
- B25 — lower, 45700
- B26 — lower, 62100
- B27 — lower, 73800
